Experimental data: article PMC11058270, “Discovering a mitochondrion-localized BAHD acyltransferase involved in calystegine biosynthesis and engineering the production of 3β-tigloyloxytropane” (Nature Communications, 2024)

Assays:
[1] = tested on: C/C=C(\C)C(=O)SCCNC(=O)CCNC(=O)[C@H](O)C(C)(C)COP(=O)(O)OP(=O)(O)OC[C@H]1O[C@@H](n2cnc3c(N)ncnc32)[C@H](O)[C@@H]1OP(=O)(O)O; experiment: steady-state kinetics, LC-MS product analysis; assay type: biochemical, Atropa belladonna; conditions: co-substrate 3β-tropanol, 50 mM glycine-NaOH pH 8.6, 30 °C
From the text: (§1) steady-state kinetics, LC-MS product analysis on TS (3β-tigloyloxytropane synthase; AbTS)

[2] = tested on: CC(=O)SCCNC(=O)CCNC(=O)[C@H](O)C(C)(C)COP(=O)(O)OP(=O)(O)OC[C@H]1O[C@@H](n2cnc3c(N)ncnc32)[C@H](O)[C@@H]1OP(=O)(O)O; experiment: steady-state kinetics, LC-MS product analysis; assay type: biochemical, Atropa belladonna; conditions: co-substrate 3β-tropanol, 50 mM glycine-NaOH pH 8.6, 30 °C
From the text: as §1

[3] = tested on: CC(C)(COP(=O)(O)OP(=O)(O)OC[C@H]1O[C@@H](n2cnc3c(N)ncnc32)[C@H](O)[C@@H]1OP(=O)(O)O)[C@@H](O)C(=O)NCCC(=O)NCCSC(=O)c1ccccc1; experiment: steady-state kinetics, LC-MS product analysis; assay type: biochemical, Atropa belladonna; conditions: co-substrate 3β-tropanol, 50 mM glycine-NaOH pH 8.6, 30 °C
From the text: as §1

[4] = tested on: CN1[C@@H]2CC[C@H]1C[C@H](O)C2; experiment: steady-state kinetics, LC-MS product analysis; assay type: biochemical, Atropa belladonna; conditions: acyl donor tigloyl-CoA, 50 mM glycine-NaOH pH 8.6, 30 °C
From the text: as §1

[5] = target: T1, TS (3β-tigloyloxytropane synthase; AbTS) (Atropa belladonna, UniProt A0AAF1BX09); experiment: steady-state kinetics, LC-MS product analysis; assay type: biochemical; conditions: co-substrate 3β-tropanol; 50 mM glycine-NaOH pH 8.6, 30 °C
T1 construct: full-length codon-optimised CDS (TSopt) in pMAL-c5x, N-terminal MBP tag (cleavage not mentioned), E. coli BL21 (DE3), amylose resin
From the text: as §1

[6] = target: T2, PcICS (isobutyryl CoA synthetase) (Pseudomonas chlororaphis, UniProt Q5CD72); experiment: enzyme assay, MS detection of tigloyl-CoA; assay type: biochemical
T2 construct: gene acsA; purified recombinant protein; tag and host for purification not described in main text

Molecule	Km [1] [µM]	kcat [1] [s⁻¹]	kcat/Km [1] [M⁻¹ s⁻¹]	Km [3] [µM]	kcat [3] [s⁻¹]	kcat/Km [3] [M⁻¹ s⁻¹]	Km [4] [µM]	kcat [4] [s⁻¹]	kcat/Km [4] [M⁻¹ s⁻¹]	also measured
TS (3β-tigloyloxytropane synthase; AbTS) (Atropa belladonna; F46I)	410 ± 110	1.42 ± 0.17	3590 ± 570	370 ± 90	0.04 ± 0.004	99.3 ± 13.3	320 ± 60	1.44 ± 0.09	4550 ± 594	Km [2]: 350 ± 120 µM; kcat [2]: 0.005 ± 0.0008 s⁻¹; kcat/Km [2]: 16.2 ± 3.42 M⁻¹ s⁻¹
TS (3β-tigloyloxytropane synthase; AbTS) (Atropa belladonna)	20 ± 4	7.38 ± 0.25	338000 ± 49100	–	–	–	360 ± 50	6.84 ± 0.3	19000 ± 1660	–
CC(C)(COP(=O)(O)OP(=O)(O)OC[C@H]1O[C@@H](n2cnc3c(N)ncnc32)[C@H](O)[C@@H]1OP(=O)(O)O)[C@@H](O)C(=O)NCCC(=O)NCCSC(=O)c1ccccc1 [benzoyl-CoA]	–	–	–	–	–	–	–	–	–	Km [5]: 920 ± 580 µM
TS (3β-tigloyloxytropane synthase; AbTS) (Atropa belladonna; S40T)	20 ± 3	11.4 ± 0.34	572000 ± 72300	840 ± 380	0.03 ± 0.006	32.7 ± 6.77	320 ± 70	11.1 ± 0.81	35200 ± 5480	Km [2]: 70 ± 10 µM; kcat [2]: 0.09 ± 0.004 s⁻¹; kcat/Km [2]: 1190 ± 155 M⁻¹ s⁻¹
CC(=O)SCCNC(=O)CCNC(=O)[C@H](O)C(C)(C)COP(=O)(O)OP(=O)(O)OC[C@H]1O[C@@H](n2cnc3c(N)ncnc32)[C@H](O)[C@@H]1OP(=O)(O)O [acetyl-CoA]	–	–	–	–	–	–	–	–	–	Km [5]: 90 ± 20 µM
C/C=C(\C)C(=O)O [tiglic acid]	–	–	–	–	–	–	–	–	–	enzyme assay, MS detection of tigloyl-CoA ([6]; co-substrate CoA): purified PcICS catalyzed the synthesis of tigloyl-CoA from CoA and tiglic acid
TS (3β-tigloyloxytropane synthase; AbTS) (Atropa belladonna; F46I/S40T)	150 ± 20	2.27 ± 0.1	14800 ± 1370	260 ± 80	0.08 ± 0.008	305 ± 54.1	–	–	–	–
CC(C)(COP(=O)(O)OP(=O)(O)OC[C@H]1O[C@@H](n2cnc3c(N)ncnc32)[C@H](O)[C@@H]1OP(=O)(O)O)[C@@H](O)C(=O)NCCC(=O)NCCS [CoA]	–	–	–	–	–	–	–	–	–	enzyme assay, MS detection of tigloyl-CoA ([6]; co-substrate tiglic acid): purified PcICS catalyzed the synthesis of tigloyl-CoA from CoA and tiglic acid
